Data from FireProtDB (doi:10.1002/prot.340090203).
“And” between values parts separate entries of the source, which are not always exact repeats. Equal values may be shown once.

B1: Tryptophan synthase alpha chain, P0A877 (parent)
chain: MERYESLFAQLKERKEGAFVPFVTLGDPGIEQSLKIIDTLIEAGADALELGIPFSDPLADGPTIQNATLRAFAAGVTPAQCFEMLALIRQKHPTIPIGLLMYANLVFNKGIDEFYAQCEKVGVDSVLVADVPVEESAPFRQAALRHNVAPIFICPPNADDDLLRQIASYGRGYTYLLSRAGVTGAENRAALPLNHLVAKLKEYNAAPPLQGFGISAPDQVKAAIDAGAAGAISGSAIVKIIEQHINEPEKMLAALKVFVQPMKAATRS

Variants of: B1
Details: Escherichia coli (strain K12), reversible: yes, structure 1WQ5, whole UniProt chain shown
[1] = pH 7, 25 °C, GdnHCl, CD, Potassium phosphate 10 mM
[2] = pH 7, 25 °C, GdnHCl, CD, Potassium phosphate 10 mM, transition: 3
[3] = pH 9, 54.1 °C, Thermal, DSC, Sodium tetraborate 1 mM, EDTA 1 mM
[4] = pH 9, Thermal, DSC, Sodium tetraborate 1 mM

| Variant | ddG of mutation (higher = less stable) [1] | unfolding free energy [1] | unfolding free energy [2] | ddG of mutation (higher = less stable) [3] | heat capacity change of unfolding [3] | Tm [4] | change of melting temperature, mutant - wild type (higher = more stable) [4] | heat capacity change of unfolding [4] | unfolding enthalpy (calorimetric) [4] | ddG of mutation (higher = less stable) [2] |
| --- | --- | --- | --- | --- | --- | --- | --- | --- | --- | --- |
| MERYESLFAQLKERKEGAFVPFVTLGDAGIEQSLKIIDTLIEAGADALELGIPFSDPLADGPTIQNATLRAFAAGVTPAQCFEMLALIRQKHPTIPIGLLMYANLVFNKGIDEFYAQCEKVGVDSVLVADVPVEESAPFRQAALRHNVAPIFICPPNADDDLLRQIASYGRGYTYLLSRAGVTGAENRAALPLNHLVAKLKEYNAAPPLQGFGISAPDQVKAAIDAGAAGAISGSAIVKIIEQHINEPEKMLAALKVFVQPMKAATRS [P28A] | 2.5 kcal/mol | 6.3 kcal/mol | 2.2 kcal/mol and 4.1 kcal/mol |  |  |  |  |  |  |  |
| MERYESLFAQLKERKEGAFVPFVTLGDGGIEQSLKIIDTLIEAGADALELGIPFSDPLADGPTIQNATLRAFAAGVTPAQCFEMLALIRQKHPTIPIGLLMYANLVFNKGIDEFYAQCEKVGVDSVLVADVPVEESAPFRQAALRHNVAPIFICPPNADDDLLRQIASYGRGYTYLLSRAGVTGAENRAALPLNHLVAKLKEYNAAPPLQGFGISAPDQVKAAIDAGAAGAISGSAIVKIIEQHINEPEKMLAALKVFVQPMKAATRS [P28G] | 1.6 kcal/mol | 7.2 kcal/mol | 2.3 kcal/mol and 4.9 kcal/mol |  |  |  |  |  |  |  |
| MERYESLFAQLKERKEGAFVPFVTLGDPGIEQSLKIIDTLIEAGADALELGIPFSDPLADGPTIQNATLRAFAAGVTPAQCFEMLALIRQKHPTIPIGLLMYANLVFNKGIDEFYAQCEKVGVDSVLVADVGVEESAPFRQAALRHNVAPIFICPPNADDDLLRQIASYGRGYTYLLSRAGVTGAENRAALPLNHLVAKLKEYNAAPPLQGFGISAPDQVKAAIDAGAAGAISGSAIVKIIEQHINEPEKMLAALKVFVQPMKAATRS [P132G] | 0.6 kcal/mol | 8.2 kcal/mol | 3.6 kcal/mol and 4.6 kcal/mol | 0.78 kcal/mol | 5.1 kcal/mol/K | 51.8 °C | -2.3 °C | 5.1 kcal/mol/K | 117 kcal/mol |  |
| MERYESLFAQLKERKEGAFVPFVTLGDPGIEQSLKIIDTLIEAGADALELGIPFSDPLADGPTIQNATLRAFAAGVTPAQCFEMLALIRQKHPTIPIGLLMYANLVFNKGIDEFYAQCEKVGVDSVLVADVPVEESAPFRQAALRHNVAPIFICPPNADDDLLRQIASYGRGYTYLLSRAGVTGAENRAALPLNHLVAKLKEYNAAAPLQGFGISAPDQVKAAIDAGAAGAISGSAIVKIIEQHINEPEKMLAALKVFVQPMKAATRS [P207A] | 1.8 kcal/mol | 7 kcal/mol | 2.4 kcal/mol |  |  | 47.4 °C | -6.7 °C | 4.9 kcal/mol/K | 95 kcal/mol | 2.2 kcal/mol |
| MERYESLFAQLKERKEGAFVPFVTLGDPGIEQSLKIIDTLIEAGADALELGIPFSDALADGPTIQNATLRAFAAGVTPAQCFEMLALIRQKHPTIPIGLLMYANLVFNKGIDEFYAQCEKVGVDSVLVADVPVEESAPFRQAALRHNVAPIFICPPNADDDLLRQIASYGRGYTYLLSRAGVTGAENRAALPLNHLVAKLKEYNAAPPLQGFGISAPDQVKAAIDAGAAGAISGSAIVKIIEQHINEPEKMLAALKVFVQPMKAATRS [P57A] |  |  |  | 0.04 kcal/mol | 4.7 kcal/mol/K | 54 °C | -0.1 °C | 4.7 kcal/mol/K | 121 kcal/mol |  |
| MERYESLFAQLKERKEGAFVPFVTLGDPGIEQSLKIIDTLIEAGADALELGIPFSDPLADGATIQNATLRAFAAGVTPAQCFEMLALIRQKHPTIPIGLLMYANLVFNKGIDEFYAQCEKVGVDSVLVADVPVEESAPFRQAALRHNVAPIFICPPNADDDLLRQIASYGRGYTYLLSRAGVTGAENRAALPLNHLVAKLKEYNAAPPLQGFGISAPDQVKAAIDAGAAGAISGSAIVKIIEQHINEPEKMLAALKVFVQPMKAATRS [P62A] |  |  |  | 0.52 kcal/mol | 4.9 kcal/mol/K |  |  |  |  |  |
| MERYESLFAQLKERKEGAFVPFVTLGDPGIEQSLKIIDTLIEAGADALELGIPFSDPLADGPTIQNATLRAFAAGVTPAQCFEMLALIRQKHPTIAIGLLMYANLVFNKGIDEFYAQCEKVGVDSVLVADVPVEESAPFRQAALRHNVAPIFICPPNADDDLLRQIASYGRGYTYLLSRAGVTGAENRAALPLNHLVAKLKEYNAAPPLQGFGISAPDQVKAAIDAGAAGAISGSAIVKIIEQHINEPEKMLAALKVFVQPMKAATRS [P96A] |  |  |  | 2 kcal/mol | 3.6 kcal/mol/K | 47.8 °C | -6.3 °C | 3.6 kcal/mol/K | 113 kcal/mol |  |
| MERYESLFAQLKERKEGAFVPFVTLGDPGIEQSLKIIDTLIEAGADALELGIPFSDPLADGPTIQNATLRAFAAGVTPAQCFEMLALIRQKHPTIPIGLLMYANLVFNKGIDEFYAQCEKVGVDSVLVADVAVEESAPFRQAALRHNVAPIFICPPNADDDLLRQIASYGRGYTYLLSRAGVTGAENRAALPLNHLVAKLKEYNAAPPLQGFGISAPDQVKAAIDAGAAGAISGSAIVKIIEQHINEPEKMLAALKVFVQPMKAATRS [P132A] |  |  |  | 0.92 kcal/mol | 4.8 kcal/mol/K | 51.5 °C | -2.6 °C | 4.8 kcal/mol/K | 121 kcal/mol |  |
